From patent US20170369572A1 (CELGENE, published 2017)

Experiments:
[1] = target: T1, human CD47 on CCRF-CEM cells (human, UniProt Q08722 19-323); assay: flow cytometry on CCRF-CEM cells, MFI against concentration, one site specific binding with Hill slope
T1 construct: Endogenous CD47 on the human T lymphoblast line CCRF-CEM (ATCC CCL-119); also called CD47-positive CCRF-CEM cells; CCRF-EM cells
Protocol: To obtain binding curves, sample variants were titrated 1:2 in FACS buffer (PBS 2% FCS) starting from a high concentration of ˜66 nM for each sample. 0.1×10⁶ CCRF-EM cells were plated in a 96 well plate and incubated in 50 μl FACS buffer containing the indicated concentration of sample variants for 1 hour in ice. Cells were then washed with 150 μ1 FACS buffer and incubated in 50 μl FACS buffer containing the secondary antibody (anti-human-IgG-PE, Jackson ImmunoResearch) diluted 1:100, for 1 hr in ice. Cells were then washed with FACS buffer and fixed in 2% PFA for acquisition with LSR II, DB flow cytometer (BD Biosciences, San Jose, Calif.). Flow Cytometry analysis was performed using FloJo software Version 9.6.4. To obtain titration curves and Kd, Mean Fluorescence Intensity (MFI) values were plotted against concentration (nM). Kd values were calculated using Prism 6, Non linear regression curve fit analysis, One Site Specific Binding with Hill Slope.

[2] = target: T2, human C1q (human, UniProt P02745 23-245; P02746 28-253; P02747 29-245); assay: C1q binding ELISA, antibody coated and titrated, bound human C1q detected with anti-C1q HRP; NA = do not show activity
T2 construct: also called C1q (AbD Serotec 2221-5504)
Protocol: Method: 96-well high protein binding ELISA plates (MaxSorp Nunc) were coated overnight at 4° C. with sample anti-CD47 antibody variants diluted in 0.05 M Sodium Bicarbonate Buffer (pH 9). Samples were diluted at a high concentration of 133.4 nM (20 μg/ml) and titrated 1:2 in an 11-point dilution curve. Plates were washed three times in PBS, 0.05% Tween 20 and blocked for 1 hour at room temperature with ELISA Diluent (0.1 M NAPO₄, 0.1 M NaCl, 0.1% gelatin, 0.05% Tween 20, 0.05% ProClin300). Plates were then washed again three times and incubated for two hours at room temperature with 2 μg/mL human C1q (AbD Serotec 2221-5504, 1 mg/mL stock) diluted in ELISA Diluent. Plates were then washed three times and incubated with sheep anti-human C1q HRP (AbD Serotec 2221-5004P) diluted 1:200 in ELISA Diluent for 1 hour at room temperature to detect bound Clq. Plates were then washed three times, then 100 μL of TMB solution was added. Reaction was quenched by adding 100 μl of 1M Phosphoric Acid and plate was read at 450 nm. Data are plotted using Prism6 as non-linear regression with log (inhibitor) vs. response—Variable slope (four parameters).

[3] = target: T3, human CD47 antigen (human, UniProt Q08722 19-139, limits assumed); assay: SPR (Biacore), experimental Rmax against theoretical Rmax, stoichiometry 2
T3 construct: also called CD47 analyte
Protocol: (§1) Kinetic Assays: For kinetic assays anti-CD47 antibodies were captured onto the anti-human Fc surfaces (surface preparation described above). For capture of the antibodies with human Fc, the antibodies were diluted to 10 μg/mL in HBS-EP+ running buffer. The antibody variants were immobilized by flowing over flow cell 2, 3 or 4 at a flow rate of 10 uL/min for 12 seconds. The analyte (human CD47 antigen) was diluted into running buffer to prepare a serial dilution series created with a 2-fold dilution factor to give concentrations of 3.125, 6.25, 12.5, 25 and 50 nM. After anti-CD47 antibody capture, the CD47 analyte was injected over the flow cells for 180 seconds (3 minutes) at 50 μL/min, and complex dissociation was monitored for 900 seconds (15 minutes). Buffer blanks were also run, and were used to reference the analyte binding data before fitting. Anti-human Fc surfaces were regenerated with two 30-second injections of 3M MgCl₂ at 30 uL/min between each analyte binding cycle.
Kinetic data analysis: Experimental data for a given antibody—antigen interaction were fit using the 1:1 binding model, using global Rₘₐₓ, global kₐ (association), global kd (dissociation) parameters, and constant RI (bulk refractive index) parameters. Fraction activity (% ligand activity) was determinined using the following formula to calculate the relationship between the theoretical Rₘₐₓ (Rₘₐₓ Theo) and the experimental Rₘₐₓ (Rₘₐₓ exp). In the formula, stoichiometry represents the instances of interaction between antibody and antigen, for instance, when the antibody is the ligand, each of the antibody arms can interact with antigen, thus the stoichiometry is 2.

[4] = target: T3, human CD47 antigen; assay: SPR (Biacore), antibody captured on anti-human Fc, human CD47 as analyte 3.125-50 nM, 1:1 model
Protocol: (§2) Immobilization: Anti-human Fc (AHC) surfaces were prepared by amine-coupling monoclonal mouse anti-human Fc IgG (included in the Biacore Human Antibody Capture Kit, GE Life Sciences Cat #BR-1008-39) to a Biacore CM5 sensor chip surface. The running buffer for the immobilization procedure was HBS-EP+ (10 mM HEPES, 150 mM NaCl, 3 mM EDTA, 0.05% v/v P-20 as surfactant). The following was performed in all four flow cells to prepare surfaces amine-coupled anti-human Fc IgG. The CM5 chip surface was activated by injecting a 1:1 (v/v) mixture of 400 mM EDC and 100 mM NHS for 7 minutes at 10 μL/min. Following this treatment, anti-human IgG was diluted to 25 μg/mL in 10 mM sodium acetate buffer pH 5.0, and injected over all the flow cells at 10 μL/min for 7 minutes. Then, Ethanolamine was injected at 10 μL/min for 7 minutes to block all the surfaces.
as §1
(§3) Kinetic data analysis: Experimental data for a given antibody—antigen interaction were fit using the 1:1 binding model, using global Rₘₐₓ, global kₐ (association), global kd (dissociation) parameters, and constant RI (bulk refractive index) parameters.

[5] = target: T3, human CD47 antigen; assay: SPR (Biacore): antibody captured on anti-human Fc CM5 chip, human CD47 as analyte at 3.125-50 nM, 1:1 Binding model; the text says this fit is not reliable
Protocol: as §2, §1, §3

T2 sequence (P02745 23-245 limits assumed, chain 1 of 3): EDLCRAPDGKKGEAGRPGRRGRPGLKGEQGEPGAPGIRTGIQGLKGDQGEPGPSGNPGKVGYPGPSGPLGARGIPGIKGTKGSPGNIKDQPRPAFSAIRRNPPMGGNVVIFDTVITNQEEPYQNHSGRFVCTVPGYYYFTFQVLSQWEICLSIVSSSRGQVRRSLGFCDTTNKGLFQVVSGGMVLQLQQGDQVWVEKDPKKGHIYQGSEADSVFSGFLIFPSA
T2 sequence (P02746 28-253 limits assumed, chain 2 of 3): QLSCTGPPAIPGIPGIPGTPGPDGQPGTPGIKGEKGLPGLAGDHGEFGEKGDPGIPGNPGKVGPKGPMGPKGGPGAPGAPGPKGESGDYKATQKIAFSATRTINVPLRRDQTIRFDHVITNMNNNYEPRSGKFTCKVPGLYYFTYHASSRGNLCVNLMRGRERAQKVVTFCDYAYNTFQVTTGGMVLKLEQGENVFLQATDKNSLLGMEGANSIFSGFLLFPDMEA
T2 sequence (P02747 29-245 limits assumed, chain 3 of 3): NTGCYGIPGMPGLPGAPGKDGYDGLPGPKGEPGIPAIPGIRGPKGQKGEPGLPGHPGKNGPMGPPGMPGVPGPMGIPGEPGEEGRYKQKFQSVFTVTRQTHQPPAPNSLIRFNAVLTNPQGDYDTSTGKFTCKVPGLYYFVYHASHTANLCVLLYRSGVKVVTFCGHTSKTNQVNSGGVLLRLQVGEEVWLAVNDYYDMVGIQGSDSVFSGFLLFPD

Row | Binder | Kd [1] [pM] | binding result [2] | % Ligand activity [3] [%] | Kd [4] [pM] | koff [4] [s⁻¹] | kon [4] [M⁻¹ s⁻¹] | Kd [5] [pM] | koff [5] [s⁻¹] | kon [5] [M⁻¹ s⁻¹]
1 | anti-CD47 antibody IgG4P-parental, CHO expressed (antibody, Parental antibody as IgG4 S228P, made in CHO cells) VH: not shown VL: NIQMTQSPSAMSASVGDRVTITCKASQDIHRYLSWFQQKPGKVPKHLIYRANRLVSGVPSRFSGSGSGTEFTLTISSLQPEDFATYYCLQYDEFPYTFGGGTKVEIKRTVAAPSVFIFPPSDEQLKSGTASVVCLLNNFYPREAKVQWKVDNALQSGNSQESVTEQDSKDSTYSLSSTLTLSKADYEKHKVYACEVTHQGLSSPVTKSFNRGEC | 180 | no binding |  |  |  |  |  |  | 
2 | Anti-CD47 CF Control (antibody, V domains shown, also called Control Antibody; anti-CD47 control antibody) VH: QMQLVQSGAEVKKTGSSVKVSCKASGFNIKDYYLHWVRQAPGQALEWMGWIDPDQGDTEYAQKFQDRVTITRDRSMSTAYMELSSLRSEDTAMYYCNAAYGSSSYPMDYWGQGTTVTV VL: NIQMTQSPSAMSASVGDRVTITCKASQDIHRYLSWFQQKPGKVPKHLIYRANRLVSGVPSRFSGSGSGTEFTLTISSLQPEDFATYYCLQYDEFPYTFGGGTKVEIK |  |  | 39.4 | 3160 | 0.00231 | 732000 |  |  | 
3 | anti-CD47 antibody IgG1-13m, cell-free expressed (antibody, IgG1 with 13 framework mutations in VH; cell-free system; also called IgG1-13m-CF) heavy: not shown light: MNIQMTQSPSAMSASVGDRVTITCKASQDIHRYLSWFQQKPGKVPKHLIYRANRLVSGVPSRFSGSGSGTEFTLTISSLQPEDFATYYCLQYDEFPYTFGGGTKVEIKRTVAAPSVFIFPPSDEQLKSGTASVVCLLNNFYPREAKVQWKVDNALQSGNSQESVTEQDSKDSTYSLSSTLTLSKADYEKHKVYACEVTHQGLSSPVTKSFNRGEC | 150 | no binding |  |  |  |  | 4200 | 0.00398 | 946000
4 | anti-CD47 antibody IgG4P-parental, cell-free expressed (antibody, Parental variable domains on IgG4 S228P; cell-free system; also called IgG4P-parental-CF) heavy: not shown light: MNIQMTQSPSAMSASVGDRVTITCKASQDIHRYLSWFQQKPGKVPKHLIYRANRLVSGVPSRFSGSGSGTEFTLTISSLQPEDFATYYCLQYDEFPYTFGGGTKVEIKRTVAAPSVFIFPPSDEQLKSGTASVVCLLNNFYPREAKVQWKVDNALQSGNSQESVTEQDSKDSTYSLSSTLTLSKADYEKHKVYACEVTHQGLSSPVTKSFNRGEC |  | no binding |  |  |  |  |  |  | 
5 | anti-CD47 antibody IgG4P-5m, cell-free expressed (antibody, IgG4 S228P with 5 framework mutations in VH; cell-free system; also called IgG4P-5m-CF) heavy: not shown light: MNIQMTQSPSAMSASVGDRVTITCKASQDIHRYLSWFQQKPGKVPKHLIYRANRLVSGVPSRFSGSGSGTEFTLTISSLQPEDFATYYCLQYDEFPYTFGGGTKVEIKRTVAAPSVFIFPPSDEQLKSGTASVVCLLNNFYPREAKVQWKVDNALQSGNSQESVTEQDSKDSTYSLSSTLTLSKADYEKHKVYACEVTHQGLSSPVTKSFNRGEC | 140 | no binding | 38.2 | 3600 | 0.00254 | 704000 |  |  | 
6 | anti-CD47 antibody IgG4PE-parental, cell-free expressed (antibody, Parental variable domains on IgG4 S228P/L235E; cell-free system; also called IgG4PE-parental-CF) heavy: not shown light: MNIQMTQSPSAMSASVGDRVTITCKASQDIHRYLSWFQQKPGKVPKHLIYRANRLVSGVPSRFSGSGSGTEFTLTISSLQPEDFATYYCLQYDEFPYTFGGGTKVEIKRTVAAPSVFIFPPSDEQLKSGTASVVCLLNNFYPREAKVQWKVDNALQSGNSQESVTEQDSKDSTYSLSSTLTLSKADYEKHKVYACEVTHQGLSSPVTKSFNRGEC |  | no binding |  |  |  |  |  |  | 
7 | anti-CD47 antibody IgG1-13mZ, cell-free expressed (antibody, IgG1 Z allotype with 13 framework mutations in VH (13 + 2 mutations); cell-free system; also called IgG1-13mZ-CF) heavy: not shown light: MNIQMTQSPSAMSASVGDRVTITCKASQDIHRYLSWFQQKPGKVPKHLIYRANRLVSGVPSRFSGSGSGTEFTLTISSLQPEDFATYYCLQYDEFPYTFGGGTKVEIKRTVAAPSVFIFPPSDEQLKSGTASVVCLLNNFYPREAKVQWKVDNALQSGNSQESVTEQDSKDSTYSLSSTLTLSKADYEKHKVYACEVTHQGLSSPVTKSFNRGEC | 210 | no binding |  |  |  |  | 4910 | 0.00404 | 824000

Continued by falling Kd [1], values first:

Row | Kd [1] [pM] | binding result [2] | % Ligand activity [3] [%] | Kd [4] [pM] | koff [4] [s⁻¹] | kon [4] [M⁻¹ s⁻¹] | Kd [5] [pM] | koff [5] [s⁻¹] | kon [5] [M⁻¹ s⁻¹] | Binder
8 | 210 | no binding |  |  |  |  |  |  |  | anti-CD47 antibody IgG4PE-parental, CHO expressed (antibody, Parental antibody as IgG4 S228P/L235E, made in CHO cells; also called IgG4-PE CHO; CHO IgG4PE) VH: not shown VL: NIQMTQSPSAMSASVGDRVTITCKASQDIHRYLSWFQQKPGKVPKHLIYRANRLVSGVPSRFSGSGSGTEFTLTISSLQPEDFATYYCLQYDEFPYTFGGGTKVEIKRTVAAPSVFIFPPSDEQLKSGTASVVCLLNNFYPREAKVQWKVDNALQSGNSQESVTEQDSKDSTYSLSSTLTLSKADYEKHKVYACEVTHQGLSSPVTKSFNRGEC
9 | 140 | no binding |  |  |  |  |  |  |  | anti-CD47 antibody IgG1-parental, cell-free expressed (antibody, Parental (AB6.12) variable domains on IgG1; cell-free system; also called IgG1-parental-CF; IgG1-CF) heavy: not shown light: MNIQMTQSPSAMSASVGDRVTITCKASQDIHRYLSWFQQKPGKVPKHLIYRANRLVSGVPSRFSGSGSGTEFTLTISSLQPEDFATYYCLQYDEFPYTFGGGTKVEIKRTVAAPSVFIFPPSDEQLKSGTASVVCLLNNFYPREAKVQWKVDNALQSGNSQESVTEQDSKDSTYSLSSTLTLSKADYEKHKVYACEVTHQGLSSPVTKSFNRGEC
10 | 140 | no binding | 39.2 | 4270 | 0.00254 | 594000 |  |  |  | anti-CD47 antibody IgG4PE-5m, cell-free expressed (antibody, IgG4 S228P/L235E with 5 framework mutations in VH; cell-free system; also called IgG4PE-5m-CF) heavy: not shown light: MNIQMTQSPSAMSASVGDRVTITCKASQDIHRYLSWFQQKPGKVPKHLIYRANRLVSGVPSRFSGSGSGTEFTLTISSLQPEDFATYYCLQYDEFPYTFGGGTKVEIKRTVAAPSVFIFPPSDEQLKSGTASVVCLLNNFYPREAKVQWKVDNALQSGNSQESVTEQDSKDSTYSLSSTLTLSKADYEKHKVYACEVTHQGLSSPVTKSFNRGEC
11 | 120 | no binding | 37.4 | 4090 | 0.0026 | 636000 |  |  |  | anti-CD47 antibody IgG1-5m, cell-free expressed (antibody, IgG1 with 5 framework mutations in VH; also called IgG1-5m-CF) heavy: not shown light: MNIQMTQSPSAMSASVGDRVTITCKASQDIHRYLSWFQQKPGKVPKHLIYRANRLVSGVPSRFSGSGSGTEFTLTISSLQPEDFATYYCLQYDEFPYTFGGGTKVEIKRTVAAPSVFIFPPSDEQLKSGTASVVCLLNNFYPREAKVQWKVDNALQSGNSQESVTEQDSKDSTYSLSSTLTLSKADYEKHKVYACEVTHQGLSSPVTKSFNRGEC
